Like-named read-outs stand apart in the source and are kept apart here.
Key:
[1] = cited from earlier work
[2] = precipitation of ZP1848 in solution with phosphate and NaCl, same conditions as on the column under RPC1; format: physicochemical
Protocol: Additionally, ZP1848 precipitates at neutral pH in solutions containing NaCl, phosphate, NaOH and high ionic strength.
Below in Table 4.1 various formulations of ZP1848 were prepared in 100 mM NaCl and 45 mM phosphate (the buffers are described in Example 1.12) at different pH and/or concentrations in order to reflect the same conditions in solution as present in the column under RPC1.
Additionally, it was shown that ZP1848 precipitates even at low concentrations at pH 7.5 (0.2 and 0.5 mg/mL).

GLP-2 [3-33]: truncated GLP-2 [3-33] (DGSFSDEMNTILDNLAARDFINWLIQTKITD; Glucagon-like peptide 2; UniProt P01275 148-178, looked up, fragment)
half-life ([1]; in humans): ~27 min

Hy-His-Ala-Asp-Gly-Ser-Phe-Ser-Asp-Glu-Met-Asn-Thr-Ile-Leu-Asp-Asn-Leu-Ala-Ala-Arg-Asp-Phe-Ile-Asn-Trp-Leu-Ile-Gln-Thr-Lys-Ile-Thr-Asp-OH [GLP-2 [1-33]]
half-life ([1]; in humans): around 7 minutes

H-HGEGTFSSELATILDALAARDFIAWLIATKITDKKKKKK-NH2 [ZP1848]
precipitation in solution ([2]; neutral pH, solutions containing NaCl, phosphate, NaOH and high ionic strength): precipitates | precipitation at low concentrations ([2]; pH 7.5, 0.2 and 0.5 mg/mL): precipitates | precipitation in peptide product solution ([2]; phosphate buffer/phosphoric acid, neutral pH): precipitates | time of precipitation after sample preparation ([2]; same conditions in solution as on the column during RPC1): within minutes

CC[C@H](C)[C@H](NC(=O)[C@H](Cc1ccccc1)NC(=O)[C@H](CC(=O)O)NC(=O)[C@H](CCCNC(=N)N)NC(=O)[C@H](C)NC(=O)[C@H](C)NC(=O)[C@H](CC(C)C)NC(=O)[C@H](CC(N)=O)NC(=O)[C@H](CC(=O)O)NC(=O)[C@H](CC(C)C)NC(=O)[C@@H](NC(=O)[C@@H](NC(=O)[C@H](CC(N)=O)NC(=O)[C@H](CCSC)NC(=O)[C@H](CCC(=O)O)NC(=O)[C@H](CC(=O)O)NC(=O)[C@H](CO)NC(=O)[C@H](Cc1ccccc1)NC(=O)[C@H](CO)NC(=O)CNC(=O)[C@H](CC(=O)O)NC(=O)CNC(=O)[C@@H](N)Cc1c[nH]cn1)[C@@H](C)O)[C@@H](C)CC)C(=O)N[C@@H](CC(N)=O)C(=O)N[C@@H](Cc1c[nH]c2ccccc12)C(=O)N[C@@H](CC(C)C)C(=O)N[C@H](C(=O)N[C@@H](CCC(N)=O)C(=O)N[C@H](C(=O)N[C@@H](CCCCN)C(=O)N[C@H](C(=O)N[C@H](C(=O)N[C@@H](CC(=O)O)C(=O)O)[C@@H](C)O)[C@@H](C)CC)[C@@H](C)O)[C@@H](C)CC [teduglutide, [hGly2] GLP-2]
half-life ([1]; Gly substitution at position 2, compared with native GLP-2): about two

From patent US20260116943A1, “PROCESSES FOR SYNTHESIZING GLUCAGON-LIKE-PEPTIDE 2 (GLP-2) ANALOGUES” (Zealand Pharma A/S, priority 2021, published 2026)
